From patent publication US20200224203A1 come the findings set out here.

The target in series [1] is huntingtin (htt) protein, full length, from human fibroblasts, P42858.
The target in series [2] is modified htt protein after partial exon 12 skipping (human) (UniProt P42858). The series can be described thus: cell-based or functional assay.

huntingtin (htt) protein, full length, from human fibroblasts, P42858, sequence (P42858 whole entry): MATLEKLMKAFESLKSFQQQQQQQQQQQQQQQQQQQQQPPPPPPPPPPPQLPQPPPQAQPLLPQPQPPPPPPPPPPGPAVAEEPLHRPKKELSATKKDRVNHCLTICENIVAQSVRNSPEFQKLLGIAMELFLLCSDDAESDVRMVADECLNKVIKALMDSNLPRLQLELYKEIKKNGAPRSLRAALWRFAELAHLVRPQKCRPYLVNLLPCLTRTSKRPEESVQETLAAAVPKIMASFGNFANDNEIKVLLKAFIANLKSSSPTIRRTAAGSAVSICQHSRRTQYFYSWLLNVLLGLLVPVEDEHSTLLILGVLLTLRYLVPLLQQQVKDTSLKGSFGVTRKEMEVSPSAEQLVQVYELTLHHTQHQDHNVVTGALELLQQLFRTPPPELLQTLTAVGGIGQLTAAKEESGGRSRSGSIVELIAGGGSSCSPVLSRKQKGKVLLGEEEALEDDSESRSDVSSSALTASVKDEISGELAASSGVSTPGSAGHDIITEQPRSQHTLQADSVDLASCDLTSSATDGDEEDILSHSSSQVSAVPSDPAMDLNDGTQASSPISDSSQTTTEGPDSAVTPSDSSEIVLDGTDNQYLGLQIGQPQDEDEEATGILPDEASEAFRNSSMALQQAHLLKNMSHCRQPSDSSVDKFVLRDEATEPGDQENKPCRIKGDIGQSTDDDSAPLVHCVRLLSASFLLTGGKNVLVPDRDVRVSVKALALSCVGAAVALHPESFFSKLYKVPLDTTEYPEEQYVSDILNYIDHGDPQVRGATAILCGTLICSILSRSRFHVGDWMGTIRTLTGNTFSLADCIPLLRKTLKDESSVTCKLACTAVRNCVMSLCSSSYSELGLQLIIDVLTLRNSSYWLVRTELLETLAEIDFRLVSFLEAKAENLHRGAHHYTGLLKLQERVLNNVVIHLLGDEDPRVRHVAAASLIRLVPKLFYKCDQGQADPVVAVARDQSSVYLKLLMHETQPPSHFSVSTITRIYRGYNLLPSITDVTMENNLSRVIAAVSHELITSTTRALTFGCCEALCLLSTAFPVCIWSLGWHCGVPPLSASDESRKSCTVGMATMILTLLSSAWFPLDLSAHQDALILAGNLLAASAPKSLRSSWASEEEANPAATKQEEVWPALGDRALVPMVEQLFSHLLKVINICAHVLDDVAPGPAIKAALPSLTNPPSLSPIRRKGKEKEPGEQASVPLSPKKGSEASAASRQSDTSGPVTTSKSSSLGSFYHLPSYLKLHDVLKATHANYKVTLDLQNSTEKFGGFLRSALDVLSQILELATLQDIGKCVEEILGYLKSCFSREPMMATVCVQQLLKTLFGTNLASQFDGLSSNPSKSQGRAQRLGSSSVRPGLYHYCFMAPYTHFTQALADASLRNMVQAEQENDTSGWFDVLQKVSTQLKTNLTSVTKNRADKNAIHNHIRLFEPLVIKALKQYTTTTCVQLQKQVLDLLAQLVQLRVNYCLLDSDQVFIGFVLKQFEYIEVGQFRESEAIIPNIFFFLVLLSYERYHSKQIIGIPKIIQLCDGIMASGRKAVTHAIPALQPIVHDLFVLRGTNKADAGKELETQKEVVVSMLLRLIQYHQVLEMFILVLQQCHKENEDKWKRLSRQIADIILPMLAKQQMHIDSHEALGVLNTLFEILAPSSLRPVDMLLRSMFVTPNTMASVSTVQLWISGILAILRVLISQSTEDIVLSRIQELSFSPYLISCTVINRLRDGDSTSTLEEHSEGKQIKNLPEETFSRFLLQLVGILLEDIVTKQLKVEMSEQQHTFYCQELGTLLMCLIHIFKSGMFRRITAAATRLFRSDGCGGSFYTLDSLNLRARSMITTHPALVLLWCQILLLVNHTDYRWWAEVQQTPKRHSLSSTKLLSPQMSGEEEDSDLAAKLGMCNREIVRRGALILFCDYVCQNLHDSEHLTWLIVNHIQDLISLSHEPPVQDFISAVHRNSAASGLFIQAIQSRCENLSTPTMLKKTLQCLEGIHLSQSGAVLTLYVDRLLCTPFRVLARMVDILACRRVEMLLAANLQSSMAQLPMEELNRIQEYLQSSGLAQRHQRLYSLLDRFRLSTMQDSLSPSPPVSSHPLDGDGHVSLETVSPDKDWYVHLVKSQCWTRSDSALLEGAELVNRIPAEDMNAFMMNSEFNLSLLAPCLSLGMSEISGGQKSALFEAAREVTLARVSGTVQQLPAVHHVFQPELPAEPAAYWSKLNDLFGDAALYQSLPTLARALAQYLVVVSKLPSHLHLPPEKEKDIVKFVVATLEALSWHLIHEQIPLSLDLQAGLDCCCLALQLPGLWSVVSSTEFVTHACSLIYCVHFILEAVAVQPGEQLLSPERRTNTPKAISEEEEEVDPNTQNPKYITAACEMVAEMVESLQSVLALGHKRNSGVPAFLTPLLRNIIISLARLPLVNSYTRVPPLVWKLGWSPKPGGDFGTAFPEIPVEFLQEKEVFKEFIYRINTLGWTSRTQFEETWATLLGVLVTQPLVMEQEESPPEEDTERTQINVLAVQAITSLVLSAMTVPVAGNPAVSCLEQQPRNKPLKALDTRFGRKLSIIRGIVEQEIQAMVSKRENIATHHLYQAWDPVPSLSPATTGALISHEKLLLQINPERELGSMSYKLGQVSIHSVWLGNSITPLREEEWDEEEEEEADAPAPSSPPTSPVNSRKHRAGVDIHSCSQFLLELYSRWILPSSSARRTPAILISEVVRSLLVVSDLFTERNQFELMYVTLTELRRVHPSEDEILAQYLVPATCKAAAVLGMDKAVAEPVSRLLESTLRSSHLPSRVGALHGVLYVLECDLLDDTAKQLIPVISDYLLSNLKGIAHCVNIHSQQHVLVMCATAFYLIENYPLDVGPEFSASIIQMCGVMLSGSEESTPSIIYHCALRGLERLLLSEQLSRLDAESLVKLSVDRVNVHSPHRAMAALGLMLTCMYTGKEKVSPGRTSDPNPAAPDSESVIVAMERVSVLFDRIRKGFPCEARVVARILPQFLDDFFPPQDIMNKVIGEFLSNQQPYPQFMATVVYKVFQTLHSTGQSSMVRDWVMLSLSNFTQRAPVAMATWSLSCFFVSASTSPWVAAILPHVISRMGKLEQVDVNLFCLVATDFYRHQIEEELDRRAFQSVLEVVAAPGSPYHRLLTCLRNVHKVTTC

B1: recombinant active caspase-6 (protein)
chain: AFYKREMFDPAEKYKMDHRRRGIALIFNHERFFWHLTLPERRGTCADRDNLTRRFSDLGFEVKCFNDLKAEELLLKIHEVSTVSHADADCFVCVFLSHGEGNHIYAYDAKIEIQTLTGLFKGDKCHSLVGKPKIFIIQACRGNQHDVPVIPLDVVDNQTEKLDTNITEVDAASVYTLPAGADFLMCYSVAEGYYSHRETVNGSWYIQDLCEMLGKYGSSLEFTELLTLVNRKVSQRRVDFCKDPSAIGKKQVPCFASMLTKKLHFFPKSN
Turning to B1, the “N-terminal htt fragments detected by Western blot (4C8 antibody) in an in vitro caspase-6 cleavage assay” value in series [1] is recorded as “After samples were incubated with recombinant active caspase-6, N-terminal htt fragments of 98 kDa were detected”. This molecule also yielded a reduction of 98 kDa N-terminal htt fragments in an in vitro caspase-6 cleavage assay (samples from cells treated with hHTTEx12 7) in series [2] of 31.9%.
